We go through four molecules from patent US20160024214A1 (Novo Nordisk, published 2016).

Values joined by “and” are separate entries in the source; they are usually repeats but may differ in a detail not shown here. Equal values may be shown once. Read-outs that look alike come from different tables or passages of the source.

Assay [1] concerns the target T1, human NKG2D (hNKG2D) on the cell surface (human, UniProt P26718 1-216).
T1 construct: BaF/3 cells co-transfected with full-length NKG2D and DAP10, or native receptor on human NK, CD8+ and gamma-delta T cells of PBMC / whole blood; also called cell-surface NKG2D; NKG2D/DAP10-expressing BaF/3 cells
T1 chain: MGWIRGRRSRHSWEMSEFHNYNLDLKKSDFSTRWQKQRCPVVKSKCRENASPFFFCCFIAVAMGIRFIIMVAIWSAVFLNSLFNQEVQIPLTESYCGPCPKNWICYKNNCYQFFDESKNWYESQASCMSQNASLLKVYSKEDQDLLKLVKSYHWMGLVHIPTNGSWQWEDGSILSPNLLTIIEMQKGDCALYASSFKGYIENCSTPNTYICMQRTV
Briefly: flow cytometry, NKG2D/DAP10 BaF/3 cells, dose-response. Background: In flow cytometry, cells or beads pass a laser one at a time.

In assay [2] the target is T1, human NKG2D (hNKG2D) on the cell surface. The assay can be described thus: flow cytometry, NKG2D-expressing cells; 149810 first, then 16F16 as competitor.
Assay [3] shares this target. Briefly: flow cytometry, NKG2D-expressing cells; pre-incubation with 149810, then ON72 as competitor (post-incubation antibody).
The target is the same in assay [4]. Briefly: cell-based or functional assay.
Assay [5] deals with recombinant NKG2D-Fc (R&D Systems) (human) (UniProt P26718). Briefly: SPR (Biacore), antibody over immobilised NKG2D-Fc, Langmuir fit. (In SPR one partner is held on a chip, and binding of the other changes the refractive index at the surface.)
Assay [6] addresses T1, human NKG2D (hNKG2D) on the cell surface. Briefly: flow cytometry, NKG2D-expressing cells; ON72 first, then 16F16 as competitor.
For assay [7] the target is unchanged. The assay can be described thus: flow cytometry, NKG2D-expressing cells; ON72 first, then 16F16 as competitor (FIG. 9A legend).
Assay [8] shares this target. Briefly: flow cytometry, NKG2D/DAP10 BaF/3 cells; antibody pre-incubated, then 1 µg hFc-MICA as competitor.
Assay [9] has the same target. The assay is described as above.
Assay [10] has as its target T2, soluble hNKG2D fragment (residues 81-216 of SEQ ID NO:2) (human, UniProt P26718 81-216).
T2 construct: Homodimer in the crystal with two hzON72 Fab molecules
T2 sequence: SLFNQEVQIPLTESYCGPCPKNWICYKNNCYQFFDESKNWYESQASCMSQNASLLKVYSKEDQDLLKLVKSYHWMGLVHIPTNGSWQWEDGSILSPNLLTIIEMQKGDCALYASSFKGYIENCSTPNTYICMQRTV
Briefly: complex purified by gel filtration; X-ray crystal structure 3.15 Å. For orientation: SEC sorts molecules by how far they enter the pores of the column.

As to “149810 (murine anti-hNKG2D antibody, R&D Systems)”, the EC50 (usually the concentration that produces a half-maximal response) in assay [1] is 0.063 µg/mL and 0.042 nM. In addition, in assay [2], the % blockade of 16F16 binding is 50%. The Inhibition (%) in assay [3] was found to be 85%.
As for “ON72 (murine anti-hNKG2D antibody, Beckman Coulter)”, in assay [4], the % proliferation of PBMC, stimulation CD3 0.1 + CD28 + ON72 (immobilized) turned out to be 22.9%; the % proliferation of PBMC, stimulation CD3 0.1 + ON72 (immobilized) worked out at 7.12%; the % proliferation of PBMC, stimulation CD3 0.3 + CD28 + ON72 (immobilized) was determined as 40.1%; the % proliferation of PBMC, stimulation CD3 0.3 + ON72 (immobilized) was determined as 28.4%. In assay [4], this molecule registered an EC50 (µg/ml), inhibition of NK-cell killing of ULPB3-expressing target cells (51Cr release) of 0.065 µg/mL; a down-modulation of cell-surface NKG2D, NKG2D/DAP10 BaF/3 cells, overnight, 1 µg of 55%; an internalization of NKG2D at 1 h, NKG2D+ lymphocytes in whole blood, 0.1 µg/ml of 50 to 75%; an internalization of NKG2D at 24 h, NKG2D+ lymphocytes in whole blood, 0.1 µg/ml of 100%. Also, the concentration giving a half-maximal response (EC50) in assay [1] is 0.062 µg/mL and 0.048 nM. Moreover, in [5], the Kd (in general, the free concentration of one partner at which half of the binding sites on the other are occupied at equilibrium, for simple one-to-one binding) turned out to be 170 pM; the koff (as a rule, the first-order rate constant of dissociation) stood at 0.00011 s⁻¹; the kon (usually a measure of how fast the partners come together) stood at 960000 M⁻¹ s⁻¹. In addition, the % of 16F16 binding blocked in assay [6] was found to be 82%. The same molecule registered a % of 16F16 binding prevented in assay [7] of 85%. In assay [8], the IC50 (commonly the point on the concentration scale where inhibition reaches its midpoint) worked out at 0.019 µg/mL and the full blockade of 1 µg MICA-Fc came out at 0.54 µg/mL. In assay [9], the IC50 came to 20 pM and the full blockade of 1 µg MICA-Fc was 0.24 nM.

B1: 16F16 (recombinantly expressed, IgG4 isotype) (antibody, V domains shown)
VH: EVQLVESGGGLVKPGGSLRLSCAASGFTFSSYSMNWVRQAPGKGLEWVSSITSSSSYIYYADSVKGRFTISRDNAKNSLYLQMNSLRAEDTAVYYCARDRRYFDWFPLDYRGQGTLVTVSS
VL: DIQMTQSPSSLSASVGDRVTITCRASQGISSWLAWYQQKPEKAPKSLIYAASSLQSGVPSRFSGSGSGTDFTLTISSLQPEDFATYYCQQYNGYPYTFGQGTKLEIKR
notes: Fully human anti-hNKG2D antibody from KM mouse hybridoma; variable regions cloned into human IgG4 framework, expressed in HEK293 cells, protein A purified; also called 16F16 IgG4; 16F16 (IgG4)
In assay [1], B1 came in with an EC50 of 34 pM.

B2: hzON72 Fab (humanized version of ON72 Fab fragment) (Fab, V domains shown)
VH: QVQLVQSGAEVKKPGASVKVSCKASGYTFTNYWMHWVRQAPGQGLEWMGEIDPSDIYTNYAQKFQGRVTMTRDTSTSTVYMELSSLRSEDTAVYYCARGIYDGYYVYGMDYWGQGTTVTVSS
VL: YIQMTQSPSSLSASVGDRVTITCRSSQDISNYLNWYQQKPGKAPKLLIYYTSRLHSGVPSRFSGSGSGTDFTFTISSLQPEDIATYYCQQGKTLPRTFGGGTKVEIKR
On to B2, for which the binding result in [10] is recorded as “binds”.
